Assay results reported in paper PMC3170320, “Minimal Antizyme Peptide Fully Functioning in the Binding and Inhibition of Ornithine Decarboxylase and Antizyme Inhibitor” (PLoS ONE, 2011).

T1: human antizyme inhibitor, wild type (human, UniProt O14977 1-448)
T1 sequence (looked up): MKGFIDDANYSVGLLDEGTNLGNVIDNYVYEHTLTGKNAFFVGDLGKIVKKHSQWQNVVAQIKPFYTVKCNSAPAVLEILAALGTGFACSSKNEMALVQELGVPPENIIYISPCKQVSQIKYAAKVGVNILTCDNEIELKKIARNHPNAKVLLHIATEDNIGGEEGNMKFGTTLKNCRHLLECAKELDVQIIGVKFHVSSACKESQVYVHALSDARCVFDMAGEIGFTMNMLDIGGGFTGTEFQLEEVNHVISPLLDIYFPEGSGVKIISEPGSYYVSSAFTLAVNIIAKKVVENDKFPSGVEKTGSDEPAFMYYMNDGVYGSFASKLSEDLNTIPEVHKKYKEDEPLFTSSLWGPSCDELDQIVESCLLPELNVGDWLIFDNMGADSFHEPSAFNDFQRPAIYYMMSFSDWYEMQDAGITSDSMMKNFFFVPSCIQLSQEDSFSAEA

B1: human ornithine decarboxylase, wild type (enzyme, UniProt P11926 1-461, looked up)
chain: MNNFGNEEFDCHFLDEGFTAKDILDQKINEVSSSDDKDAFYVADLGDILKKHLRWLKALPRVTPFYAVKCNDSKAIVKTLAATGTGFDCASKTEIQLVQSLGVPPERIIYANPCKQVSQIKYAANNGVQMMTFDSEVELMKVARAHPKAKLVLRIATDDSKAVCRLSVKFGATLRTSRLLLERAKELNIDVVGVSFHVGSGCTDPETFVQAISDARCVFDMGAEVGFSMYLLDIGGGFPGSEDVKLKFEEITGVINPALDKYFPSDSGVRIIAEPGRYYVASAFTLAVNIIAKKIVLKEQTGSDDEDESSEQTFMYYVNDGVYGSFNCILYDHAHVKPLLQKRPKPDEKYYSSSIWGPTCDGLDRIVERCDLPEMHVGDWMLFENMGAYTVAAASTFNGFQRPTIYYVMSGPAWQLMQQFQNPDFPPEVEEQDASTLPVSCAWESGMKRHRAACASASINV
notes: ornithine decarboxylase (ODC, EC 4.1.1.17), human, wild type; Kd was fitted with an A+B to AB model; also called ODC

Key:
[1] = biological target: B1; test: cell-based or functional assay
[2] = biological target: T1, human antizyme inhibitor, wild type; test: cell-based or functional assay
[3] = biological target: B1; test: AUC; sedimentation velocity, 42,000 rpm, 20°C; ODC fixed at 0.3 mg/mL, AZ or AZ peptide 0.015 to 0.2 mg/mL (molar ratio AZ/ODC 0.12 to 2); 30 mM Tris-HCl pH 7.4, 25 mM NaCl; global fit to the A+B to AB hetero-association model in SEDPHAT; conditions: both partners purified
[4] = biological target: T1, human antizyme inhibitor, wild type; test: AUC; sedimentation velocity, 20°C; AZI fixed at 0.3 mg/mL, AZ or AZ peptide 0.05 to 0.24 mg/mL (molar ratio AZ/AZI 0.4 to 2.4); 30 mM Tris-HCl pH 7.4, 25 mM NaCl; global fit to the A+B to AB hetero-association model in SEDPHAT; conditions: both partners purified
[5] = biological target: the molecule itself; test: AUC; sedimentation velocity, 42,000 rpm, 20°C; ODC fixed at 0.3 mg/mL, AZ or AZ peptide 0.015 to 0.2 mg/mL (molar ratio AZ/ODC 0.12 to 2); 30 mM Tris-HCl pH 7.4, 25 mM NaCl; global fit to the A+B to AB hetero-association model in SEDPHAT

Binder | IC50 of inhibition of ODC enzyme activity (ODC 0.19 µM), without AZI [1] | IC50 of inhibition of ODC enzyme activity with ODC pre-incubated with equimolar AZI (m1 as the enzyme) [2] | Kd [3] | Kd [4] | binding result [5]
human antizyme peptide AZ_100-176 (domain or fragment) not shown | 430 nM | 1420 nM | 10800 ± 70 nM | – | –
human antizyme peptide AZ_95-135 (domain or fragment) not shown | 510 nM | 1590 nM | 10300 ± 70 nM | – | –
human antizyme peptide AZ_95-176 (domain or fragment) not shown | 200 nM | 680 nM | 5600 ± 40 nM | 60 ± 4 nM | –
human antizyme peptide AZ_95-124 (domain or fragment) not shown | 650 nM | 1980 nM | 18600 ± 130 nM | 280 ± 2 nM | –
human antizyme, wild type (natural protein) not shown | 160 nM | 500 nM | 710 ± 5 nM | 27 ± 0.1 nM | –
human antizyme peptide AZ_87-124 (domain or fragment) not shown | 520 nM | 1550 nM | 12700 ± 280 nM | 160 ± 1 nM | –
human antizyme peptide AZ_95-228 (domain or fragment) not shown | 160 nM | 570 nM | 1500 ± 10 nM | 24 ± 0.2 nM | –
B1 | – | – | – | – | binds
human antizyme peptide AZ_100-228 (domain or fragment) not shown | 210 nM | 620 nM | 5300 ± 30 nM | 68 ± 0.7 nM | –
